Results reported in patent US20130095098A1 (UCB, published 2013).

B1: antibody CA051-00948 (948 murine parental; cloned recombinant antibody derived from hybridoma Clone 10) (antibody, IgG1, V domains shown)
VH: DVQLQESGPGLVKPSQSLSLTCTVTGYSITSDYAWNWIRQFPGNKLEWMGYINYSGSTSYNPSLKSRISITRDTSKNQFFLQLNSVTTEDTATYYCARWIGSSAWYFDVWGAGTTVTVS
VL: DVLMTQTPLSLPVSLGDQASISCRSGQNIVHSNGNTYLEWYLQKPGQSPKLLIYKVSNRFFGVPDRISGSGSGTDFTLKISRVEAEDLGVYFCFQGSHVPFTFGSGTKLEIK
notes: also called Ab948
B2: 948.g1 (948 humanised graft; gL1 light chain, g1 heavy chain, human gamma-4 S241P / human kappa) (antibody, human IgG4 S228P, kappa, V domains shown)
VH: EVQLQESGPGLVKPSQTLSLTCTVTGYSITSDYAWNWIRQPPGKKLEWMGYINYSGSTSYNPSLKSRVTISRDTSKNQFSLKLSSVTAADTAVYYCARWIGSSAWYFDVWGQGTLVTVSS
VL: DVLMTQTPLSLSVTPGQPASISCRSGQNIVHSNGNTYLEWYLQKPGQSPKLLIYKVSNRFFGVPDRISGSGSGTDFTLKISRVEAEDVGVYFCFQGSHVPFTFGQGTKLEIKR

Key:
[1] = molecular target: T1, human PD-1 (Programmed Death 1), full-length, expressed on transiently transfected HEK293 cells (human, UniProt Q15116 25-288); assay: flow cytometry on HEK293 cells transiently transfected with human PD-1; rat anti-mouse IgG secondary
T1 construct: whole, on cells; also called CD279; PDCD1
T1 sequence (Q15116 25-288): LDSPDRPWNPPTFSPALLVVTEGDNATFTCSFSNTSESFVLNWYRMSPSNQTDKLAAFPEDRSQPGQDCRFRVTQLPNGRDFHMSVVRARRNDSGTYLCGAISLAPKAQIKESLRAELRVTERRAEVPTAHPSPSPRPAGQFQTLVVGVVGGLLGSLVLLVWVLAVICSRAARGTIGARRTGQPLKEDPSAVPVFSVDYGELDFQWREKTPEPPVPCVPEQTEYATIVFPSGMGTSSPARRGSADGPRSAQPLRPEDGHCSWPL
Protocol: (§1) HEK293 cells were transiently transfected by culturing at 5×10⁶/well with 5 μg human PD-1 DNA and 293 fectin (Invitrogen) overnight in 6 well plates. […] Cells were washed with PBS and incubated with an appropriate secondary antibody, either FITC Mouse anti Human IgG (05-4211 Zymed, 1:20 dilution) or rat anti Mouse IgG (04-6111 Zymed, 1:20 dilution) for 1 hr at 4° C. Flow cytometry analysis was performed on a FACSCalibur (Becton Dickinson).

[2] = molecular target: T1, human PD-1 (Programmed Death 1), …; assay: flow cytometry on HEK293 cells transiently transfected with human PD-1; FITC mouse anti-human IgG secondary
Protocol: as §1

Row | Binder | binding result [1] | binding result [2]
1 | B1 | binds | –
2 | B2 | – | binds
